The results in this text go back to patent publication US20230110188A1 (ARGENX IIP, published 2023).

Assay [1] addresses T1, Human MuSK (R&D Systems, cat. 10189-MK, histidine tag) (human, UniProt O15146 24-495).
T1 construct: Bought protein; also called human monomeric MuSK-6xhis; not shown: histidine tag (6xhis)
T1 sequence: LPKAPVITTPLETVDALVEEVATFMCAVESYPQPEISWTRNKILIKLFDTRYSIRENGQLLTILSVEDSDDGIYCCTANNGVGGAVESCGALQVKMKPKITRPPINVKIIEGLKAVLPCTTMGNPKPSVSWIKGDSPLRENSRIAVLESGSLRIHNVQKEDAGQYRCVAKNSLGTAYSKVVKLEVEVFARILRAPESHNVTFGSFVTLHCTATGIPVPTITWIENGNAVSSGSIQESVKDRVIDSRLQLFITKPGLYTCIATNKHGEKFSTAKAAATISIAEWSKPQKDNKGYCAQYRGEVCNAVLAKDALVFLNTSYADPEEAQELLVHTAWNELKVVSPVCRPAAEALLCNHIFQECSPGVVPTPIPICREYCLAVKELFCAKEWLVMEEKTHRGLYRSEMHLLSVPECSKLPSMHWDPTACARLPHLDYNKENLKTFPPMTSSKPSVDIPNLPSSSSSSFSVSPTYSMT
Description: SPR (Biacore), antibody captured on anti-hFc chip; 2.5 nM; dissociation pH 5.5. The text has this:
In order to study pH dependent binding of our antibodies to MuSK, the Biacore was used with the same setup as described in the paragraph entitled “Binding affinity for mouse, human and rhesus monkey recombinant MuSK in Biacore”. 6. […] For the other antibodies there is no real difference observed between pH 7.4 and 5.5.
In general terms: Surface plasmon resonance follows binding to a sensor surface in real time, without labels.

The target in assay [2] is T2, Mouse MuSK as it stands on mouse muscle (neuromuscular junctions, C2C12 myotubes) (mouse, UniProt Q61006 22-868).
T2 sequence (looked up): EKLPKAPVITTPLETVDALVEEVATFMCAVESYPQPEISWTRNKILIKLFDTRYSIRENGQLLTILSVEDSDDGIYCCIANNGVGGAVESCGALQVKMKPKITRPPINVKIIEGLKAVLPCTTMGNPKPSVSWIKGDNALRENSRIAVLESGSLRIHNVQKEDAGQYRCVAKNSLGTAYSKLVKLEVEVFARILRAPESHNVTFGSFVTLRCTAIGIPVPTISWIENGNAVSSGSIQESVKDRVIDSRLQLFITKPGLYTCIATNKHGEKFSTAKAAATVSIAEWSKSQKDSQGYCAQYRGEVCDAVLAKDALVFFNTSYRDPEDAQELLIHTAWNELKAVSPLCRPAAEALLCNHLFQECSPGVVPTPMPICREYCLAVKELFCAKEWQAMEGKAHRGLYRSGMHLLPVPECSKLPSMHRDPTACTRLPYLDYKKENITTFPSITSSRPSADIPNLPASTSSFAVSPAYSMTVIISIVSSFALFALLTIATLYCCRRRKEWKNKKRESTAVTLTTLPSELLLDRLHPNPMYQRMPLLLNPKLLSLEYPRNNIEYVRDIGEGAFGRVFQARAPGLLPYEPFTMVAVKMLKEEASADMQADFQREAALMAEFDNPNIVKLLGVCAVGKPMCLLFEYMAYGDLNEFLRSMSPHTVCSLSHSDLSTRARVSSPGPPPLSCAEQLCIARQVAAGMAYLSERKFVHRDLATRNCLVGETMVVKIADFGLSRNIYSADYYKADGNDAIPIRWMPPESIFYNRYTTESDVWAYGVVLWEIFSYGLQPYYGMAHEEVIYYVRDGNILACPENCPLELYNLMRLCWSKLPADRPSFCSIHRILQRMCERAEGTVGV
Description: cell-based or functional assay.

Assay [3] has as its target T3, Rhesus monkey MuSK (recombinant, streptavidine and Flag tag) (rhesus monkey, UniProt O15146 24-495 (human entry)).
T3 construct: also called Rhesus MuSK; not shown: streptavidine and Flag tag
T3 chain: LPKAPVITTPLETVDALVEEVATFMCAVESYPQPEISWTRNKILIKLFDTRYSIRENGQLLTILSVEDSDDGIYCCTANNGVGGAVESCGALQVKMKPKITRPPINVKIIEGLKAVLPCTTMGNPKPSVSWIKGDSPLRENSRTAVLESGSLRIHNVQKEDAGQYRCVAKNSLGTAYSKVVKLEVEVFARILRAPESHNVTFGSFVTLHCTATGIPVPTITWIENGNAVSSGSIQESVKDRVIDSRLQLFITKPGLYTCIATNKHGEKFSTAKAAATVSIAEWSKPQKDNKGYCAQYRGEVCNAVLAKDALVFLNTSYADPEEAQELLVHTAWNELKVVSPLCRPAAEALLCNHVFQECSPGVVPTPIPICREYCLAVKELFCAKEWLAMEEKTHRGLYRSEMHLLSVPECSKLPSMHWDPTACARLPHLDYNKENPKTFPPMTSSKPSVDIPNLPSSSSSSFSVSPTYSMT
Description: SPR (Biacore), antibody captured on anti-hFc chip, MuSK injected 0.3125-10 nM. The procedure:
(§1) The affinity of 3D10a, 4D3, 3F6c and 3D9b for human, rhesus monkey and mouse MuSK was tested in Biacore using the setup shown in FIG. 3. […] The affinities are very high keeping in mind that MuSK was added here in solution, allowing only for monovalent binding (affinity versus avidity).

Assay [4] deals with T1, Human MuSK (R&D Systems, cat. 10189-MK, …). The description is as above. The protocol: as §1
In assay [5] the target is T4, Mouse MuSK (recombinant, streptavidine and Flag tag) (mouse, UniProt Q61006 22-494).
T4 construct: not shown: streptavidine and Flag tag
T4 sequence: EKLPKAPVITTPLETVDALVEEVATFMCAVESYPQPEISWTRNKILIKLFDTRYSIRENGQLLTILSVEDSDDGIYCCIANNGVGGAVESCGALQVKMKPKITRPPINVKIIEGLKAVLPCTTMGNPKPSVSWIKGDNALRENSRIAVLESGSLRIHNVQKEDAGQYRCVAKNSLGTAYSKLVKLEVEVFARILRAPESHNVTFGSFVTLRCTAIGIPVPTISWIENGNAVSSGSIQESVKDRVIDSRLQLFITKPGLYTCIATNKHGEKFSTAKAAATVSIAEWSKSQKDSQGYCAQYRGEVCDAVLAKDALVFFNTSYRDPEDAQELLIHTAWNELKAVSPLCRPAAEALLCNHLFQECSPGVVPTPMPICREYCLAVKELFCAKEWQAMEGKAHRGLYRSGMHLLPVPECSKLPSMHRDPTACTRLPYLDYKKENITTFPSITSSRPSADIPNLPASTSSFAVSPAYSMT
The assay is described as above. The procedure:
as §1

B1: 3D10a (antibody, human IgG1, kappa, L234A L235A, V domains shown)
VH: EVQLVESGGGLVKPGGSLRLSCAASGFTFSASTMAWVRQAPGKGLEWVSSVSGDSHHIYYADSLKGRFTISRDNAKNSLYLQMNSLRAEDTAVYYCARERLLRLGVGFDSWGQGTLVTVSS
VL: DIQMTQSPSSLSASVGDRVTITCRASQRISGFVNWYQQKPGKAPKLLIYAASTLQSGVPSRFSGSGSGTDFTLTISSLQPEDFATYYCQQSYSPLYTFGQGTKLEIKR
The koff is a measure of how fast the partners let go of each other. For orientation: Kd means the concentration at which binding is half-saturated. Turning to B1, the koff in assay [1] was found to be 9e-05 s⁻¹. For the same molecule, in assay [2], the “AChR clusters larger or equal to 3 µm compared to agrin; antibody 0.11 µg/mL” value is 80 % of agrin, the “AChR clusters larger or equal to 3 µm compared to agrin; antibody 1.1 µg/mL” value was 79 % of agrin, the “AChR clusters larger or equal to 3 µm compared to agrin; antibody 11 µg/mL” value is 76 % of agrin and the “AChR clusters larger or equal to 3 µm compared to agrin; antibody 110 µg/mL” value was 73 % of agrin. The Kd in assay [3] is 0.21 nM. In assay [4], this molecule showed a Kd of 0.16 nM. Also, in assay [5], the Kd was 0.1 nM.

B2: 3D9b (antibody, human IgG1, kappa, L234A L235A, V domains shown)
VH: EVQLVESGGGLVKPGGSLRLSCAASGFTFSTYTMHWVRQAPGKGLEWVSSISSRSAYKYYADSVKGRFTISRDNAKNSLYLQMNSLRAEDTAVYYCARDFFQLGPPRFDSWGQGTLVTVSS
VL: DIQMTQSPSSLSASVGDRVTITCRASQRISSFLNWYQQKPGKAPKLLIYGASNLQSGVPSRFSGSGSGTDFTLTISSLQPEDFATYYCQQSYSPSYTFGQGTKLEIKR
Regarding B2, the koff in assay [1] is 4e-05 s⁻¹. In assay [2], the “AChR clusters larger or equal to 3 µm compared to agrin; antibody 0.11 µg/mL” value was 65 % of agrin, the “AChR clusters larger or equal to 3 µm compared to agrin; antibody 1.1 µg/mL” value is 99 % of agrin, the “AChR clusters larger or equal to 3 µm compared to agrin; antibody 11 µg/mL” value was 93 % of agrin and the “AChR clusters larger or equal to 3 µm compared to agrin; antibody 110 µg/mL” value was 84 % of agrin. Besides, in assay [3], the Kd was 0.28 nM. The equilibrium dissociation constant (Kd) in assay [4] was 0.17 nM. For the same molecule, in assay [5], the Kd was determined as 0.14 nM.

B3: 4D3 (antibody, human IgG1, kappa, L234A L235A, V domains shown)
VH: EVQLVESGGGLVKPGGSLRLSCAASGFTFSSYTMTWVRQAPGKGLEWVSSISSGGHYIYYTDSLKGRFTISRDNAKNSLYLQMNSLRAEDTAVYYCARERLLRLGVGFDFWGQGTLVTVSS
VL: DIQMTQSPSSLSASVGDRVTITCRASQSISGYLNWYQQKPGKAPKLLIYAASTLQSGVPSRFSGSGSGTDFTLTISSLQPEDFATYYCQQSYSALYTFGQGTKLEIKR
In the case of B3, in assay [1], the koff is 0.00014 s⁻¹. In addition, in assay [2], the “AChR clusters larger or equal to 3 µm compared to agrin; antibody 0.11 µg/mL” value was 63 % of agrin, the “AChR clusters larger or equal to 3 µm compared to agrin; antibody 1.1 µg/mL” value was 80 % of agrin, the “AChR clusters larger or equal to 3 µm compared to agrin; antibody 11 µg/mL” value is 80 % of agrin and the “AChR clusters larger or equal to 3 µm compared to agrin; antibody 110 µg/mL” value is 75 % of agrin. Also, in assay [3], the Kd is 0.31 nM. Binding in assay [4] was put at a Kd of 0.26 nM. In assay [5], the Kd was found to be 0.17 nM.

B4: 3F6c (antibody, human IgG1, kappa, L234A L235A, V domains shown)
VH: EVQLVESGGGLVKPGGSLRLSCAASGFTFSSYTMDWVRQAPGKGLEWVSSIGSNGDYIYYADSVRGRFTISRDNAKNSLYLQMNSLRAEDTAVYYCARGQLAVAGTHFDYWGQGTLVTVSS
VL: DIQMTQSPSSLSASVGDRVTITCRASQKVNKYVNWYQQKPGKAPKLLIYAASTLQSGVPSRFSGSGSGTDFTLTISSLQPEDFATYYCQQSYSPLSTFGQGTKLEIKR
As to B4, the koff in assay [1] is 0.0002 s⁻¹. In addition, in assay [2], the “AChR clusters larger or equal to 3 µm compared to agrin; antibody 0.11 µg/mL” value is 74 % of agrin, the “AChR clusters larger or equal to 3 µm compared to agrin; antibody 1.1 µg/mL” value is 57 % of agrin, the “AChR clusters larger or equal to 3 µm compared to agrin; antibody 11 µg/mL” value is 62 % of agrin and the “AChR clusters larger or equal to 3 µm compared to agrin; antibody 110 µg/mL” value was 61 % of agrin. For the same molecule, the Kd in assay [3] was determined as 0.13 nM. In assay [4], this molecule registered a Kd of 0.05 nM. In addition, the Kd in assay [5] was 0.03 nM.
